Assay results: US20180155451A1 (published 2018)

T1: FcγRIIb extracellular domain with C-terminal His tag (human, UniProt P31994 43-217)
T1 construct: extracellular domain; also called 2b; FcgRIIb; not shown: His tag at the C terminus
T1 sequence (looked up): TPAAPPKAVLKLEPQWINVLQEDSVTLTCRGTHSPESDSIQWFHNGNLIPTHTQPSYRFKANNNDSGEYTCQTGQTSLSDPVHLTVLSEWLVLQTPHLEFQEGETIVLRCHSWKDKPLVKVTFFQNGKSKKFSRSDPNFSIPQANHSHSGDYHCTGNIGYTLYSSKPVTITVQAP

B1: GpH7-A5/GpH7-B3 variant D265_13S/GpL16-k0 (antibody, human IgG1, kappa)
heavy 1: not shown
heavy 2: not shown
light: DIVMTQSPLSLPVTPGEPASISCQASESLVHSNRNTYLHWYLQKPGQSPQLLIYKVSNRFSGVPDRFSGSGSGTDFTLKISRVEAEDVGVYYCSQNTHVPPTFGQGTKVEIERTVAAPSVFIFPPSDEQLKSGTASVVCLLNNFYPREAKVQWKVDNALQSGNSQESVTEQDSKDSTYSLSSTLTLSKADYEKHKVYACEVTHQGLSSPVTKSFNRGEC
notes: He Ab: mutation in the GpH7-B3 H chain only; also called He Ab
B2: GpH7-A5/GpH7-B3 variant L328_09D/GpL16-k0 (antibody, human IgG1, kappa)
heavy 1: not shown
heavy 2: not shown
light: DIVMTQSPLSLPVTPGEPASISCQASESLVHSNRNTYLHWYLQKPGQSPQLLIYKVSNRFSGVPDRFSGSGSGTDFTLKISRVEAEDVGVYYCSQNTHVPPTFGQGTKVEIERTVAAPSVFIFPPSDEQLKSGTASVVCLLNNFYPREAKVQWKVDNALQSGNSQESVTEQDSKDSTYSLSSTLTLSKADYEKHKVYACEVTHQGLSSPVTKSFNRGEC
notes: as for B1
B3: GpH7-A5/GpH7-B3 variant L328_04F/GpL16-k0 (antibody, human IgG1, kappa)
heavy 1: not shown
heavy 2: not shown
light: DIVMTQSPLSLPVTPGEPASISCQASESLVHSNRNTYLHWYLQKPGQSPQLLIYKVSNRFSGVPDRFSGSGSGTDFTLKISRVEAEDVGVYYCSQNTHVPPTFGQGTKVEIERTVAAPSVFIFPPSDEQLKSGTASVVCLLNNFYPREAKVQWKVDNALQSGNSQESVTEQDSKDSTYSLSSTLTLSKADYEKHKVYACEVTHQGLSSPVTKSFNRGEC
notes: as for B1
B4: GpH7-A5/GpH7-B3 variant D265_15Y/GpL16-k0 (antibody, human IgG1, kappa)
heavy 1: not shown
heavy 2: not shown
light: DIVMTQSPLSLPVTPGEPASISCQASESLVHSNRNTYLHWYLQKPGQSPQLLIYKVSNRFSGVPDRFSGSGSGTDFTLKISRVEAEDVGVYYCSQNTHVPPTFGQGTKVEIERTVAAPSVFIFPPSDEQLKSGTASVVCLLNNFYPREAKVQWKVDNALQSGNSQESVTEQDSKDSTYSLSSTLTLSKADYEKHKVYACEVTHQGLSSPVTKSFNRGEC
notes: as for B1
B5: GpH7-A5/GpH7-B3 variant L328_02A/GpL16-k0 (antibody, human IgG1, kappa)
heavy 1: not shown
heavy 2: not shown
light: DIVMTQSPLSLPVTPGEPASISCQASESLVHSNRNTYLHWYLQKPGQSPQLLIYKVSNRFSGVPDRFSGSGSGTDFTLKISRVEAEDVGVYYCSQNTHVPPTFGQGTKVEIERTVAAPSVFIFPPSDEQLKSGTASVVCLLNNFYPREAKVQWKVDNALQSGNSQESVTEQDSKDSTYSLSSTLTLSKADYEKHKVYACEVTHQGLSSPVTKSFNRGEC
notes: as for B1
B6: GpH7-A5/GpH7-B3 variant L328_14T/GpL16-k0 (antibody, human IgG1, kappa)
heavy 1: not shown
heavy 2: not shown
light: DIVMTQSPLSLPVTPGEPASISCQASESLVHSNRNTYLHWYLQKPGQSPQLLIYKVSNRFSGVPDRFSGSGSGTDFTLKISRVEAEDVGVYYCSQNTHVPPTFGQGTKVEIERTVAAPSVFIFPPSDEQLKSGTASVVCLLNNFYPREAKVQWKVDNALQSGNSQESVTEQDSKDSTYSLSSTLTLSKADYEKHKVYACEVTHQGLSSPVTKSFNRGEC
notes: as for B1
B7: GpH7-A5/GpH7-B3 variant I332_04F/GpL16-k0 (antibody, human IgG1, kappa)
heavy 1: not shown
heavy 2: not shown
light: DIVMTQSPLSLPVTPGEPASISCQASESLVHSNRNTYLHWYLQKPGQSPQLLIYKVSNRFSGVPDRFSGSGSGTDFTLKISRVEAEDVGVYYCSQNTHVPPTFGQGTKVEIERTVAAPSVFIFPPSDEQLKSGTASVVCLLNNFYPREAKVQWKVDNALQSGNSQESVTEQDSKDSTYSLSSTLTLSKADYEKHKVYACEVTHQGLSSPVTKSFNRGEC
notes: as for B1
B8: GpH7-A5/GpH7-B3 variant D265_20W/GpL16-k0 (antibody, human IgG1, kappa)
heavy 1: not shown
heavy 2: not shown
light: DIVMTQSPLSLPVTPGEPASISCQASESLVHSNRNTYLHWYLQKPGQSPQLLIYKVSNRFSGVPDRFSGSGSGTDFTLKISRVEAEDVGVYYCSQNTHVPPTFGQGTKVEIERTVAAPSVFIFPPSDEQLKSGTASVVCLLNNFYPREAKVQWKVDNALQSGNSQESVTEQDSKDSTYSLSSTLTLSKADYEKHKVYACEVTHQGLSSPVTKSFNRGEC
notes: as for B1
B9: GpH7-A5/GpH7-B3 variant L328_07I/GpL16-k0 (antibody, human IgG1, kappa)
heavy 1: not shown
heavy 2: not shown
light: DIVMTQSPLSLPVTPGEPASISCQASESLVHSNRNTYLHWYLQKPGQSPQLLIYKVSNRFSGVPDRFSGSGSGTDFTLKISRVEAEDVGVYYCSQNTHVPPTFGQGTKVEIERTVAAPSVFIFPPSDEQLKSGTASVVCLLNNFYPREAKVQWKVDNALQSGNSQESVTEQDSKDSTYSLSSTLTLSKADYEKHKVYACEVTHQGLSSPVTKSFNRGEC
notes: as for B1

Key:
[1] = target: T1, FcγRIIb extracellular domain with …; assay: SPR (Biacore), relative binding, GpH7-A5/GpH7-B3/GpL16-k0 = 100
Experimental: (§1) Analysis of interaction between objective antibody and the FcγR was carried out using Biacore T100 (GE Healthcare). HBS-EP+ (GE Healthcare) was used as the running buffer, and the measurement temperature was set to 25° C. Chips produced by immobilizing the antigen peptide by the amine coupling method to a Series S Sencor Chip CM5 (GE Healthcare), or alternatively, chips produced by allowing preliminarily biotinylated antigen peptides to interact with and immobilize onto a Series S Sensor Chip SA (certified) (GE Healthcare) were used. Antibodies of interest were captured onto an antigen peptide-immobilized chip, and allowed to interact to each FcγR diluted with running buffer. To regenerate and repeatedly use the chip, the antibodies captured on the chip were washed off by reacting 10 mM glycine-HCl, pH 1.5.
(§2) The FcγR-binding activity of each antibody was assessed primarily using as an indicator the FcγR-binding activity and dissociation constant for FcγR.

[2] = target: T2, FcγRIIIa extracellular domain with C-terminal His tag (human, UniProt P08637 17-208); assay: as above
T2 construct: extracellular domain; also called 3a; FcgRIIIa; not shown: His tag at the C terminus
Experimental: as §1, §2

T2 sequence (P08637 17-208): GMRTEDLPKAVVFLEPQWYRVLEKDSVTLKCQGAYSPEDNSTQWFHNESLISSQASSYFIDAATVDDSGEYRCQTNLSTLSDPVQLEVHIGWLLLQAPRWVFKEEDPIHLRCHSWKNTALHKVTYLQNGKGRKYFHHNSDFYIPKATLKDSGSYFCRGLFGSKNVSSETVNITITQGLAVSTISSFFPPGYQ

Row | Binder | He/Con_2b [1] | He/Con_3a [2]
1 | B1 | 11.3 % of control | 3.9 % of control
2 | B2 | 199 % of control | 47.8 % of control
3 | B3 | 219 % of control | 79.3 % of control
4 | B4 | 0.6 % of control | -1.7 % of control
5 | B5 | 144 % of control | 79.1 % of control
6 | B6 | 141 % of control | 75.3 % of control
7 | B7 | 104 % of control | 97.6 % of control
8 | B8 | 1.1 % of control | -0.5 % of control
9 | B9 | 160 % of control | 84 % of control
